Source: paper PMC6517591

Target: Human FcRn (neonatal Fc-receptor), C-terminally biotinylated (human) (UniProt P55899)
Experiment: SPR; pH 6.0

Row | Substance | Kd [nM]
1 | GDob1 IgG1 (from UniProt P01857) | 23.7
2 | GDob1 IgG1ΔG236 (from UniProt P01857) | 25
3 | GDob1 IgG2 (from UniProt P01859) | 39
4 | GDob1 IgG2 + G236 (from UniProt P01859) | 41.8
